According to patent US20220298260A1 (MYTHIC THERAPEUTICS, published 2022):

B1: MYT0598 (antibody, V domains shown)
VH: QVQLVQSGAEVVKPGASVKISCKHSGYTFTGYFMNWVKQSPGQSLEWIGRIHPYDGDTFYNQKFQGKATLTVDKSSNTAHMELLSLTSEDFAVYYCTRYDGSRAMDYWGQGTTVTVSS
VL: DIVLTQSPLSLAVSLGQPAIISCKASQSVSFAGTSLMHWYHQKPGQQPRLLIYRASNLEAGVPDRFSGSGSKTDFTLTISPVEAEDAATYYCQQSREYPYTFGGGTKLEIK
notes: IgG
B2: MYT0597 (antibody, V domains shown)
VH: QVQLVQSGAEVVKPGASVKISCHASGYTFTGYFMNWVKQSPGQSLEWIGRIHPYDGDTFYNQKFQGKATLTVDKSSNTAHMELLSLTSEDFAVYYCTRYDGSRAMDYWGQGTTVTVSS
VL: DIVLTQSPLSLAVSLGQPAIISCKASQSVSFAGTSLMHWYHQKPGQQPRLLIYRASNLEAGVPDRFSGSGSKTDFTLTISPVEAEDAATYYCQQSREYPYTFGGGTKLEIK
notes: IgG
B3: MYT0599 (antibody, V domains shown)
VH: QVQLVQSGAEVVKPGASVKISCKAHGYTFTGYFMNWVKQSPGQSLEWIGRIHPYDGDTFYNQKFQGKATLTVDKSSNTAHMELLSLTSEDFAVYYCTRYDGSRAMDYWGQGTTVTVSS
VL: DIVLTQSPLSLAVSLGQPAIISCKASQSVSFAGTSLMHWYHQKPGQQPRLLIYRASNLEAGVPDRFSGSGSKTDFTLTISPVEAEDAATYYCQQSREYPYTFGGGTKLEIK
notes: IgG
B4: MYT0600 (antibody, V domains shown)
VH: QVQLVQSGAEVVKPGASVKISCKASHYTFTGYFMNWVKQSPGQSLEWIGRIHPYDGDTFYNQKFQGKATLTVDKSSNTAHMELLSLTSEDFAVYYCTRYDGSRAMDYWGQGTTVTVSS
VL: DIVLTQSPLSLAVSLGQPAIISCKASQSVSFAGTSLMHWYHQKPGQQPRLLIYRASNLEAGVPDRFSGSGSKTDFTLTISPVEAEDAATYYCQQSREYPYTFGGGTKLEIK
notes: IgG
B5: MYT0601 (antibody, V domains shown)
VH: QVQLVQSGAEVVKPGASVKISCKASGHTFTGYFMNWVKQSPGQSLEWIGRIHPYDGDTFYNQKFQGKATLTVDKSSNTAHMELLSLTSEDFAVYYCTRYDGSRAMDYWGQGTTVTVSS
VL: DIVLTQSPLSLAVSLGQPAIISCKASQSVSFAGTSLMHWYHQKPGQQPRLLIYRASNLEAGVPDRFSGSGSKTDFTLTISPVEAEDAATYYCQQSREYPYTFGGGTKLEIK
notes: IgG
B6: MYT0602 (antibody, V domains shown)
VH: QVQLVQSGAEVVKPGASVKISCKASGYHFTGYFMNWVKQSPGQSLEWIGRIHPYDGDTFYNQKFQGKATLTVDKSSNTAHMELLSLTSEDFAVYYCTRYDGSRAMDYWGQGTTVTVSS
VL: DIVLTQSPLSLAVSLGQPAIISCKASQSVSFAGTSLMHWYHQKPGQQPRLLIYRASNLEAGVPDRFSGSGSKTDFTLTISPVEAEDAATYYCQQSREYPYTFGGGTKLEIK
notes: IgG
B7: MYT0604 (antibody, V domains shown)
VH: QVQLVQSGAEVVKPGASVKISCKASGYTFHGYFMNWVKQSPGQSLEWIGRIHPYDGDTFYNQKFQGKATLTVDKSSNTAHMELLSLTSEDFAVYYCTRYDGSRAMDYWGQGTTVTVSS
VL: DIVLTQSPLSLAVSLGQPAIISCKASQSVSFAGTSLMHWYHQKPGQQPRLLIYRASNLEAGVPDRFSGSGSKTDFTLTISPVEAEDAATYYCQQSREYPYTFGGGTKLEIK
notes: IgG
B8: MYT0605 (antibody, V domains shown)
VH: QVQLVQSGAEVVKPGASVKISCKASGYTFTHYFMNWVKQSPGQSLEWIGRIHPYDGDTFYNQKFQGKATLTVDKSSNTAHMELLSLTSEDFAVYYCTRYDGSRAMDYWGQGTTVTVSS
VL: DIVLTQSPLSLAVSLGQPAIISCKASQSVSFAGTSLMHWYHQKPGQQPRLLIYRASNLEAGVPDRFSGSGSKTDFTLTISPVEAEDAATYYCQQSREYPYTFGGGTKLEIK
notes: IgG
B9: MYT0606 (antibody, V domains shown)
VH: QVQLVQSGAEVVKPGASVKISCKASGYTFTGHFMNWVKQSPGQSLEWIGRIHPYDGDTFYNQKFQGKATLTVDKSSNTAHMELLSLTSEDFAVYYCTRYDGSRAMDYWGQGTTVTVSS
VL: DIVLTQSPLSLAVSLGQPAIISCKASQSVSFAGTSLMHWYHQKPGQQPRLLIYRASNLEAGVPDRFSGSGSKTDFTLTISPVEAEDAATYYCQQSREYPYTFGGGTKLEIK
notes: IgG
B10: MYT0607 (antibody, V domains shown)
VH: QVQLVQSGAEVVKPGASVKISCKASGYTFTGYHMNWVKQSPGQSLEWIGRIHPYDGDTFYNQKFQGKATLTVDKSSNTAHMELLSLTSEDFAVYYCTRYDGSRAMDYWGQGTTVTVSS
VL: DIVLTQSPLSLAVSLGQPAIISCKASQSVSFAGTSLMHWYHQKPGQQPRLLIYRASNLEAGVPDRFSGSGSKTDFTLTISPVEAEDAATYYCQQSREYPYTFGGGTKLEIK
notes: IgG
B11: MYT0608 (antibody, V domains shown)
VH: QVQLVQSGAEVVKPGASVKISCKASGYTFTGYFHNWVKQSPGQSLEWIGRIHPYDGDTFYNQKFQGKATLTVDKSSNTAHMELLSLTSEDFAVYYCTRYDGSRAMDYWGQGTTVTVSS
VL: DIVLTQSPLSLAVSLGQPAIISCKASQSVSFAGTSLMHWYHQKPGQQPRLLIYRASNLEAGVPDRFSGSGSKTDFTLTISPVEAEDAATYYCQQSREYPYTFGGGTKLEIK
notes: IgG
B12: MYT0610 (antibody, V domains shown)
VH: QVQLVQSGAEVVKPGASVKISCKASGYTFTGYFMNWVKQSPGQSLEWIGHIHPYDGDTFYNQKFQGKATLTVDKSSNTAHMELLSLTSEDFAVYYCTRYDGSRAMDYWGQGTTVTVSS
VL: DIVLTQSPLSLAVSLGQPAIISCKASQSVSFAGTSLMHWYHQKPGQQPRLLIYRASNLEAGVPDRFSGSGSKTDFTLTISPVEAEDAATYYCQQSREYPYTFGGGTKLEIK
notes: IgG
B13: MYT0611 (antibody, V domains shown)
VH: QVQLVQSGAEVVKPGASVKISCKASGYTFTGYFMNWVKQSPGQSLEWIGRHHPYDGDTFYNQKFQGKATLTVDKSSNTAHMELLSLTSEDFAVYYCTRYDGSRAMDYWGQGTTVTVSS
VL: DIVLTQSPLSLAVSLGQPAIISCKASQSVSFAGTSLMHWYHQKPGQQPRLLIYRASNLEAGVPDRFSGSGSKTDFTLTISPVEAEDAATYYCQQSREYPYTFGGGTKLEIK
notes: IgG
B14: MYT0612 (antibody, V domains shown)
VH: QVQLVQSGAEVVKPGASVKISCKASGYTFTGYFMNWVKQSPGQSLEWIGRIAPYDGDTFYNQKFQGKATLTVDKSSNTAHMELLSLTSEDFAVYYCTRYDGSRAMDYWGQGTTVTVSS
VL: DIVLTQSPLSLAVSLGQPAIISCKASQSVSFAGTSLMHWYHQKPGQQPRLLIYRASNLEAGVPDRFSGSGSKTDFTLTISPVEAEDAATYYCQQSREYPYTFGGGTKLEIK
notes: IgG
B15: MYT0614 (antibody, V domains shown)
VH: QVQLVQSGAEVVKPGASVKISCKASGYTFTGYFMNWVKQSPGQSLEWIGRIHPHDGDTFYNQKFQGKATLTVDKSSNTAHMELLSLTSEDFAVYYCTRYDGSRAMDYWGQGTTVTVSS
VL: DIVLTQSPLSLAVSLGQPAIISCKASQSVSFAGTSLMHWYHQKPGQQPRLLIYRASNLEAGVPDRFSGSGSKTDFTLTISPVEAEDAATYYCQQSREYPYTFGGGTKLEIK
notes: IgG
B16: MYT0615 (antibody, V domains shown)
VH: QVQLVQSGAEVVKPGASVKISCKASGYTFTGYFMNWVKQSPGQSLEWIGRIHPYHGDTFYNQKFQGKATLTVDKSSNTAHMELLSLTSEDFAVYYCTRYDGSRAMDYWGQGTTVTVSS
VL: DIVLTQSPLSLAVSLGQPAIISCKASQSVSFAGTSLMHWYHQKPGQQPRLLIYRASNLEAGVPDRFSGSGSKTDFTLTISPVEAEDAATYYCQQSREYPYTFGGGTKLEIK
notes: IgG
B17: MYT0616 (antibody, V domains shown)
VH: QVQLVQSGAEVVKPGASVKISCKASGYTFTGYFMNWVKQSPGQSLEWIGRIHPYDHDTFYNQKFQGKATLTVDKSSNTAHMELLSLTSEDFAVYYCTRYDGSRAMDYWGQGTTVTVSS
VL: DIVLTQSPLSLAVSLGQPAIISCKASQSVSFAGTSLMHWYHQKPGQQPRLLIYRASNLEAGVPDRFSGSGSKTDFTLTISPVEAEDAATYYCQQSREYPYTFGGGTKLEIK
notes: IgG
B18: MYT0617 (antibody, V domains shown)
VH: QVQLVQSGAEVVKPGASVKISCKASGYTFTGYFMNWVKQSPGQSLEWIGRIHPYDGHTFYNQKFQGKATLTVDKSSNTAHMELLSLTSEDFAVYYCTRYDGSRAMDYWGQGTTVTVSS
VL: DIVLTQSPLSLAVSLGQPAIISCKASQSVSFAGTSLMHWYHQKPGQQPRLLIYRASNLEAGVPDRFSGSGSKTDFTLTISPVEAEDAATYYCQQSREYPYTFGGGTKLEIK
notes: IgG
B19: MYT0618 (antibody, V domains shown)
VH: QVQLVQSGAEVVKPGASVKISCKASGYTFTGYFMNWVKQSPGQSLEWIGRIHPYDGDHFYNQKFQGKATLTVDKSSNTAHMELLSLTSEDFAVYYCTRYDGSRAMDYWGQGTTVTVSS
VL: DIVLTQSPLSLAVSLGQPAIISCKASQSVSFAGTSLMHWYHQKPGQQPRLLIYRASNLEAGVPDRFSGSGSKTDFTLTISPVEAEDAATYYCQQSREYPYTFGGGTKLEIK
notes: IgG
B20: MYT0619 (antibody, V domains shown)
VH: QVQLVQSGAEVVKPGASVKISCKASGYTFTGYFMNWVKQSPGQSLEWIGRIHPYDGDTHYNQKFQGKATLTVDKSSNTAHMELLSLTSEDFAVYYCTRYDGSRAMDYWGQGTTVTVSS
VL: DIVLTQSPLSLAVSLGQPAIISCKASQSVSFAGTSLMHWYHQKPGQQPRLLIYRASNLEAGVPDRFSGSGSKTDFTLTISPVEAEDAATYYCQQSREYPYTFGGGTKLEIK
notes: IgG
B21: MYT0620 (antibody, V domains shown)
VH: QVQLVQSGAEVVKPGASVKISCKASGYTFTGYFMNWVKQSPGQSLEWIGRIHPYDGDTFHNQKFQGKATLTVDKSSNTAHMELLSLTSEDFAVYYCTRYDGSRAMDYWGQGTTVTVSS
VL: DIVLTQSPLSLAVSLGQPAIISCKASQSVSFAGTSLMHWYHQKPGQQPRLLIYRASNLEAGVPDRFSGSGSKTDFTLTISPVEAEDAATYYCQQSREYPYTFGGGTKLEIK
notes: IgG

These binders were tested against T1, FOLR1 (R&D Systems, Cat #5646-FR) (human, UniProt P15328 25-233) (assay: BLI, IgG on anti-human Fc sensor, 50 nM FOLR1).
T1 construct: Bought soluble protein; also called Folate Receptor 1
T1 sequence (P15328 25-233 limits assumed): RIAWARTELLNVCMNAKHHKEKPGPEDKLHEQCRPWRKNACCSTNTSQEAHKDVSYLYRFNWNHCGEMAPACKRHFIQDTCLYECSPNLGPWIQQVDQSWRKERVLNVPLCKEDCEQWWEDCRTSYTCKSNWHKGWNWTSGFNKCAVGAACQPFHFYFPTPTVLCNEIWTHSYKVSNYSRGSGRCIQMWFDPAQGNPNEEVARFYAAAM

Binding result, binds:
B1
B2
B3
B4
B5
B6
B7
B8
B9
B10
B11
B12
B13
B14
B15
B16
B17
B18
B19
B20
B21
